Target: GST-tagged BPTF PHD-bromodomain (human)
Test: pull-down

fold enhancement of binding over mononucleosomes with only H3K4me3: 2 to 3 fold
Substance: H4K16ac and H3K4me3 modified mononucleosome (from UniProt P62805 1-103) (complex)
